Source: US20210214440A1 (Janssen / Centocor, published 2021)

B1: CD8B362 (antibody, human IgG1, kappa, V domains shown)
VH: EVKLVESGAELVKPGASVKLSCTASGFNIKDTYMHWVKQRPEQGLEWIGRIDPANGHTKFDPKFQGKATITADTSSNTAYLQLSSLTSEDTAVYYCAIRFAYWGQGTLVTVSA
VL: DIQMTQSPSSLSASLGDRVSLTCRASHEISGYLSWLQQKPDGTFKRLIYAASTLDSGVPKRFSGSRSGSDYSLSISSLESEDFADYYCLQYSSYPYTFGSGTKLEMKR
notes: full-length human IgG1, kappa
B2: CD8B254 (antibody, human IgG1, kappa, V domains shown)
VH: EVQLQQSGAELVKPGASVKMSCKTSGYTFSSYWITWVKQRPGQGLEWVGDIYPGSGSTNYNEKFKSKAALTVDTSSSTAFMQLNSLTSEDSAVYYCARESITTRITPFDHWGQGTTLTVSS
VL: DVVMTQTPLSLPVSLGDQASISCRSSQSLVHSSGNTYLHWYLQKPGQSPKLLIYKGSNRFSGVSDRFSGSGSGTDFTLKISRVEAEDLGVYFCSQSTHVPFTFGSGTKLEIKR
notes: full-length human IgG1, kappa
B3: CD8B340 (antibody, human IgG1, kappa, V domains shown)
VH: QVQLQQPGAELVKPGASVRLSCKASGYTFTNYWMQWVQQRPGQGLEWIGEIDPSDTFTNYNQNFKDKATLTVDTSSSTAYLQLSSLTSEDSAVYYCARGDWDRDWYFDVWGTGTLVTVSA
VL: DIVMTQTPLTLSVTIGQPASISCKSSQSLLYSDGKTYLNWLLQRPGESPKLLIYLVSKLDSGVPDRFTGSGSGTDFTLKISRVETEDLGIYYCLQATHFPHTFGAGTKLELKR
notes: full-length human IgG1, kappa
B4: CD8B311 (antibody, human IgG1, kappa, V domains shown)
VH: QVQLKESGPELVKPGASVKLSCKASGYTFTSYWMHWVKQRPGQGLEWIGMIHPNSGSTNYNEKFKSKATLTVDKSSSTAYMQLSSLTSEDSAVYYCARCGYDGAWFAYWGQGTSVTVSS
VL: DIQMTQTTSSLSASLGDRVTISCSASQGISNCLNWYQQKPDGTVKLLIHYTSSLHSGVPSRFSGGGSGTHYSLTISNLEPEDIATYYCQQYSKVPYTFGSGTKLEIKR
notes: full-length human IgG1, kappa

biological target: T1, human CD8 on human pan T cells (human, UniProt P01732 22-235; P10966 22-210); experiment: flow cytometry, 20 nM mAb on human pan T cells
T1 construct: Native CD8 on the CD4-negative population of human pan T cells
T1 sequence (P01732 22-235, chain 1 of 2): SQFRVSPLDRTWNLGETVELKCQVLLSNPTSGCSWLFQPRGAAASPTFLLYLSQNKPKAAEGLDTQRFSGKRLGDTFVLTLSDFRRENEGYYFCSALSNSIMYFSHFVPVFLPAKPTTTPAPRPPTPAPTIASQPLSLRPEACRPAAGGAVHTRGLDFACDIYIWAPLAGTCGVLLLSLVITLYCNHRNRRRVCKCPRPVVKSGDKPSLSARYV
T1 sequence (P10966 22-210, chain 2 of 2): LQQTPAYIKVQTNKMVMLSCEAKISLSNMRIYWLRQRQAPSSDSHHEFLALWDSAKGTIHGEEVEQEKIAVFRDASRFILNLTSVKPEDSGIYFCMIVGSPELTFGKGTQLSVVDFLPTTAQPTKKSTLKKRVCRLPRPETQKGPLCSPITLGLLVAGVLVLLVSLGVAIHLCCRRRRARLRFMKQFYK
Experimental: Secondary antibodies were A647-conjugated goat anti human IgG Fc antibody at 2 μg/mL, and A488-conjugated mouse anti-human CD4 at 1 μg/mL in staining buffer. Live cells were also gated based on OKT8 control mAb binding. Percent CD8 positive population was calculated by percentage of CD8-positive cell count/live cell count.

Binder | Cell Binding to Human PanT Signal/Background (of CD4 negative population)
B1 | 4
B2 | 23
B3 | 8
B4 | 1
